Legend:
[1] = target: Bartonella henselae fructose bisphosphate aldolase (Bartonella henselae); assay: crystal structure; cocrystallised with 10 mM fructose 1,6-bisphosphate, vapor diffusion at 290 K, 0.2 M sodium acetate, 0.1 M Tris pH 8.5, 30% PEG 4000; four monomers in the asymmetric unit; 2.35 A
[2] = target: T1, BhFBPA (Bartonella henselae fructose bisphosphate aldolase) (Bartonella henselae, UniProt Q8L207); assay: X-ray crystal structure of the complex ([…] A, cocrystallization); type: binding; conditions: covalent; Schiff base of C2 of linear FBP with Lys223 at the active site; 10 mM FBP, pH 8.5, 290 K
T1 construct: gene fbab; full length, 343 residues; E. coli BL21(DE3) R3 Rosetta; 39495 Da; homotetramer; residues 1-340 modelled
T1 sequence (Q8L207 1-343): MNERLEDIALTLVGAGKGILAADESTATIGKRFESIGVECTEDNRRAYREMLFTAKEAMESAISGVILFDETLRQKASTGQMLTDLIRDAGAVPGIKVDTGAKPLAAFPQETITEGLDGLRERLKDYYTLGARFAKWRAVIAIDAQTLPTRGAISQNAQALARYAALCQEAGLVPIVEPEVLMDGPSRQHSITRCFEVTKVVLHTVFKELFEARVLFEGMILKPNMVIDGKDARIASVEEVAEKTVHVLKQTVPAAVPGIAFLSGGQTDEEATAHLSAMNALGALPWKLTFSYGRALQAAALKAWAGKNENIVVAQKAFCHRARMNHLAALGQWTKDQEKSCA

stoichiometry N [1]	Compound	X-ray crystal structure of the complex (2.35 A, cocrystallization) [2]
4	Bartonella henselae fructose bisphosphate aldolase (enzyme)	–
–	O=P(O)(O)OC[C@H]1OC(O)(COP(=O)(O)O)[C@@H](O)[C@@H]1O (some centres unmarked) [fructose 1,6-bisphosphate]	This structure has clear electron density for FBP bound at the active site

Source: article PMC3169401, “Structure of fructose bisphosphate aldolase from Bartonella henselae bound to fructose 1,6-bisphosphate” (Acta Crystallographica Section F: Structural Biology and …, 2011)
